The values that follow come from doi:10.1101/2025.10.13.682103.

Where “and” joins values, the source holds several entries; their conditions need not be identical. Equal entries are not always repeated.

A word on the stoichiometry N: it is a count of units in the complex or per binding partner.

The target of experiment [1] is Mycoplasma penetrans methionyl-tRNA synthetase, full length, M568A (Mycoplasma penetrans). In words: cryo-EM structure.
Experiment [2] shares this target. In words: PAGE analysis.
Experiment [3] shares this target. The experiment can be described thus: cryo-EM structure. The source holds these as a separate data set.

Turning to “Mycoplasma penetrans methionyl-tRNA synthetase, full length, M568A (enzyme)”, the stoichiometry N in experiment [1] was 2; in experiment [2], 2; in experiment [3], 4 and 6.
